Test [1] deals with T1, human OX40 on cells (human, UniProt P43489 29-277).
T1 sequence (looked up): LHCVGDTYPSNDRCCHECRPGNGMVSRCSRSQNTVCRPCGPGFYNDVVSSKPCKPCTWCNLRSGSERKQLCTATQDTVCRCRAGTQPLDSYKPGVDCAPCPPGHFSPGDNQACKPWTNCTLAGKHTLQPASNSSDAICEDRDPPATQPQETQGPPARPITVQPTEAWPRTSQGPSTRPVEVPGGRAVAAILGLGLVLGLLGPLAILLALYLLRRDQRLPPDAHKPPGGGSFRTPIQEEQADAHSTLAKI
The test is described as follows: cell-based or functional assay.

In test [2] the target is rat OX40-Fc (rat). The experiment in a line: ELISA on coated rat OX40-Fc. As for the experimental part:
These constructs were expressed in HEK293-EBNA1 cells and purified using protein A. Then, human and rat OX40-Fc were tested in ELISA and Biacore to determine antibody cross-reactivity. For the ELISA, 96 well-microtiter plates (Costar USA, distributor VWR AG, Nyon, Switzerland) were coated with 100 μl of recombinant human or rat OX40-Fc at 2 μg/ml in PBS. Plates were incubated overnight at 4° C. and were then blocked with PBS 2% BSA (Bovine Serum Albumine, PAA Laboratories, Pasching, Austria) at room temperature (RT) for one hour. The blocking solution was removed and the purified antibodies were added at 10 μg/ml in PBS 2% BSA. The plates were incubated at RT for 1 hour, then washed 5 times with PBS 0.01% Tween-20 (Sigma-Aldrich Chemie GmbH, Buchs, Switzerland). […] Plates were incubated for 1 hour at RT, washed 5 times with PBS 0.01% Tween-20 and the TMB substrate (Bio-rad Laboratories AG, Reinach, Switzerland) was added to the plates and the reaction stopped after 5 minutes by adding H₂SO₄. Absorbance was then read at 450 nm by a microplate reader (Biotek, USA; distributor: WITTEC AG, Littau, Switzerland). Biacore experiments were specifically conducted with Hexa-hzG3V9 and Hexa-hz1D10v1 which are dAb-Fc fusion proteins. […] Binding of human and cyno OX40-Fc molecules was determined by successively injecting these proteins on the 4 flow-paths (flow-path 1 and 3 being used as references) at a concentration of 200 nM and a flow rate of 30 uL/min for 240 seconds. Regeneration between the two injections was done using 3M MgCl2, at 30 uL/min for 60 seconds. Using these two approaches, human/rat OX40 binding was assessed (table 16).
A general note: An ELISA detects its analyte on a solid surface through an enzyme-linked reagent.

Sequence of rat OX40-Fc (rat) (chain, as listed by the source limits assumed): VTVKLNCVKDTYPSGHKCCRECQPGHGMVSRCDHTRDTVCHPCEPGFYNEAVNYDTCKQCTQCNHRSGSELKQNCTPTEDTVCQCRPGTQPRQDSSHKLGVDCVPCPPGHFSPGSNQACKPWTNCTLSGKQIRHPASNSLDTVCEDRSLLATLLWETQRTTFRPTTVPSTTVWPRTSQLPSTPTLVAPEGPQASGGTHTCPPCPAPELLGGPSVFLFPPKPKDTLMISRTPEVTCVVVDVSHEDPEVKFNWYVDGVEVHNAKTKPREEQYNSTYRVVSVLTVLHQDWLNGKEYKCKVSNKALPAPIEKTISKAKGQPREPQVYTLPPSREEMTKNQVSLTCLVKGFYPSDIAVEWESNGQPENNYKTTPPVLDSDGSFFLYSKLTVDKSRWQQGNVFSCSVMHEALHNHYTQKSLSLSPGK

B1: Tetra-20 (bispecific antibody, human IgG1, kappa, L234A L235A)
heavy 1: EVQLVESGGGLVQPGGSLRLSCAVSGYSITSDYAWNWIRQAPGKGLEWMGYISYSGSTAYNPSLKSRITISRDTSKNTFYLQMSSLRAEDTAVYYCARGPYNYLAYWGQGTLVTVSSASTKGPSVFPLAPSSKSTSGGTAALGCLVKDYFPEPVTVSWNSGALTSGVHTFPAVLQSSGLYSLSSVVTVPSSSLGTQTYICNVNHKPSNTKVDKKVEPKSCDKTHTCPPCPAPEAAGGPSVFLFPPKPKDTLMISRTPEVTCVVVDVSHEDPEVQFKWYVDGVEVHNAKTKPREEQYNSTFRVVSVLTVLHQDWLNGKEYKCKVSNKALPAPIEKTISKTKGQPREPAVYTLPPSREEMTKNQVKLVCLVTGFYPSDIAVEWESSGQPENNYYTTPPMLDSDGSFSLVSWLNVDKSRWQQGNIFSCSVMHEALHNRFTQKSLSLSPGGGGGTQVQLVQSGAEVKKPGASVKVSCKASGYTFTRYYMHWVRQAPGQCLEWMGWIYPGEGSTKYAQKFQGRVTMTRDTSISTAYMELSRLRSDDTAVYYCAREYGNYDYWGQGTLVTVSSGGGGSGGGGSGGGGSDIVMTQSPDSLAVSLGERATINCKSSQSLLNSGNQKNYLAWYQQKPGQPPKLLIYGASTRESGVPDRFSGSGSGTDFTLTISSLQAEDVAVYYCQNDHSYPYTFGCGTKLEIL
heavy 2: EVQLVESGGGLVQPGGSLRLSCAVSGYSITSDYAWNWIRQAPGKGLEWMGYISYSGSTAYNPSLKSRITISRDTSKNTFYLQMNSLRAEDTAVYYCARGPYNYLAYWGQGTLVTVSSASTKGPSVFPLAPSSKSTSGGTAALGCLVKDYFPEPVTVSWNSGALTSGVHTFPAVLQSSGLYSLSSVVTVPSSSLGTQTYICNVNHKPSNTKVDKKVEPKSCDKTHTCPPCPAPEAAGGPSVFLFPPKPKDTLMISRTPEVTCVVVDVSHEDPEVKFNWYVDGVEVHNAKTKPREEQYNSTYRVVSVLTVLHQDWLNGKEYKCKVSNKALPAPIEKTISKAKGQPREPEVATFPPSRDELTKNQVTLVCLVTGFYPSDIAVEWESNGQPENNYKTDPPLLESDGSFALSSRLRVDKSRWQQGNVFSCSVMHEALHNHYTQKSLSLSPGGGGGTEVQLVESGGGLVQPGGSLRLSCAVSGYSITSDYAWNWIRQAPGKGLEWMGYISYSGSTAYNPSLKSRITISRDTSKNTFYLQMNSLRAEDTAVYYCARGPYNYLAYWGQGTLVTVSSASTKGPSVFPLAPSSKSTSGGTAALGCLVKDYFPEPVTVSWNSGALTSGVHTFPAVLQSSGLYSLSSVVTVPSSSLGTQTYICNVNHKPSNTKVDKKVEPKSC
light: DIQLTQSPSSLSASVGDRVTITCRASESVDNYGISFMNWFQQKPGKAPKLLIYAASNQKSGVPSRFSGSGSGTDFTLTISSLQPEDFATYFCQQSKEVPLTFGQGTKVEIKRTVAAPSVFIFPPSDEQLKSGTASVVCLLNNFYPREAKVQWKVDNALQSGNSQESVTEQDSKDSTYSLSSTLTLSKADYEKHKVYACEVTHQGLSSPVTKSFNRGEC
As for B1, in test [1], the “% donor responder (>2), SEB assay, IL-2 release” value (shortened to “% donor responder”) amounted to 0% and the “Mean, normalized IL-2 release, SEB assay” value stood at 1.14.

B2: 2H6_hzG3v9_8 (bispecific antibody, human IgG1, kappa, L234A L235A)
heavy: not shown
light: DIQLTQSPSSLSASVGDRVTITCRASESVDNYGISFMNWFQQKPGKAPKLLIYAASNQKSGVPSRFSGSGSGTDFTLTISSLQPEDFATYFCQQSKEVPLTFGQGTKVEIKRTVAAPSVFIFPPSDEQLKSGTASVVCLLNNFYPREAKVQWKVDNALQSGNSQESVTEQDSKDSTYSLSSTLTLSKADYEKHKVYACEVTHQGLSSPVTKSFNRGEC
As for B2, in test [1], the “% donor responder” value came out at 100% and the “Mean, normalized IL-2 release, SEB assay” value stood at 48.4.

B3: 11D4 IgG2 (antibody, V domains shown)
VH: EVQLVESGGGLVQPGGSLRLSCAASGFTFSSYSMNWVRQAPGKGLEWVSYISSSSSTIDYADSVKGRFTISRDNAKNSLYLQMNSLRDEDTAVYYCARESGWYLFDYWGQGTLVTVSS
VL: DIQMTQSPSSLSASVGDRVTITCRASQGISSWLAWYQQKPEKAPKSLIYAASSLQSGVPSRFSGSGSGTDFTLTISSLQPEDFATYYCQQYNSYPPTFGGGTKVEIKR
With B3, the binding result in test [2] is reported as “no binding (tested: 10 µg/ml)”. In test [1], the “% donor responder” value was 18% and the “Mean, normalized IL-2 release, SEB assay” value was found to be 1.87.

B4: Tetra-21 (bispecific antibody, human IgG1, kappa, L234A L235A)
heavy 1: QVQLVQSGAEVKKPGASVKVSCKASGYTFTRYYMHWVRQAPGQGLEWMGWIYPGEGSTKYAQKFQGRVTMTRDTSISTAYMELSRLRSDDTAVYYCAREYGNYDYWGQGTLVTVSSASTKGPSVFPLAPSSKSTSGGTAALGCLVKDYFPEPVTVSWNSGALTSGVHTFPAVLQSSGLYSLSSVVTVPSSSLGTQTYICNVNHKPSNTKVDKKVEPKSCDKTHTCPPCPAPEAAGGPSVFLFPPKPKDTLMISRTPEVTCVVVDVSHEDPEVQFKWYVDGVEVHNAKTKPREEQYNSTFRVVSVLTVLHQDWLNGKEYKCKVSNKALPAPIEKTISKTKGQPREPAVYTLPPSREEMTKNQVKLVCLVTGFYPSDIAVEWESSGQPENNYYTTPPMLDSDGSFSLVSWLNVDKSRWQQGNIFSCSVMHEALHNRFTQKSLSLSPGGGGGTEVQLVESGGGLVQPGGSLRLSCAVSGYSITSDYAWNWIRQAPGKCLEWMGYISYSGSTAYNPSLKSRITISRDTSKNTFYLQMSSLRAEDTAVYYCARGPYNYLAYWGQGTLVTVSSGGGGSGGGGSGGGGSDIQLTQSPSSLSASVGDRVTITCRASESVDNYGISFMNWFQQKPGKAPKLLIYAASNQKSGVPSRFSGSGSGTDFTLTISSLQPEDFATYFCQQSKEVPLTFGCGTKVEIL
heavy 2: EVQLVESGGGLVQPGGSLRLSCAVSGYSITSDYAWNWIRQAPGKCLEWMGYISYSGSTAYNPSLKSRITISRDTSKNTFYLQMNSLRAEDTAVYYCARGPYNYLAYWGQGTLVTVSSGGGGSGGGGSGGGGSDIQLTQSPSSLSASVGDRVTITCRASESVDNYGISFMNWFQQKPGKAPKLLIYAASNQKSGVPSRFSGSGSGTDFTLTISSLQPEDFATYFCQQSKEVPLTFGCGTKVEIKRTGGGGTDKTHTCPPCPAPEAAGGPSVFLFPPKPKDTLMISRTPEVTCVVVDVSHEDPEVKFNWYVDGVEVHNAKTKPREEQYNSTYRVVSVLTVLHQDWLNGKEYKCKVSNKALPAPIEKTISKAKGQPREPEVATFPPSRDELTKNQVTLVCLVTGFYPSDIAVEWESNGQPENNYKTDPPLLESQGSFALSSRLRVDKSRWQQGNVFSCSVMHEALHNHYTQKSLSLSPGGGGGTQVQLVQSGAEVKKPGASVKVSCKASGYTFTRYYMHWVRQAPGQGLEWMGWIYPGEGSTKYAQKFQGRVTMTRDTSISTAYMELSRLRSDDTAVYYCAREYGNYDYWGQGTLVTVSSASTKGPSVFPLAPSSKSTSGGTAALGCLVKDYFPEPVTVSWNSGALTSGVHTFPAVLQSSGLYSLSSVVTVPSSSLGTQTYICNVNHKPSNTKVDKKVEPKSC
light: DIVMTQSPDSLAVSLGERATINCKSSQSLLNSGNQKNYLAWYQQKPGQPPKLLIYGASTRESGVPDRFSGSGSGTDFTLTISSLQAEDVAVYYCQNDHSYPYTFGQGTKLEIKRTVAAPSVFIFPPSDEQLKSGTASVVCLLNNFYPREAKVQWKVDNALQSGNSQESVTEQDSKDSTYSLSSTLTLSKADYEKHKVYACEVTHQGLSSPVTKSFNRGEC
Turning to B4, in test [1], the “% donor responder” value amounted to 8% and the “Mean, normalized IL-2 release, SEB assay” value was determined as 1.32.

B5: Tri-8 (bispecific antibody, human IgG1, kappa, L234A L235A)
heavy 1: QVQLVQSGAEVKKPGASVKVSCKASGYTFTRYYMHWVRQAPGQGLEWMGWIYPGEGSTKYAQKFQGRVTMTRDTSISTAYMELSRLRSDDTAVYYCAREYGNYDYWGQGTLVTVSSASTKGPSVFPLAPSSKSTSGGTAALGCLVKDYFPEPVTVSWNSGALTSGVHTFPAVLQSSGLYSLSSVVTVPSSSLGTQTYICNVNHKPSNTKVDKKVEPKSCDKTHTCPPCPAPEAAGGPSVFLFPPKPKDTLMISRTPEVTCVVVDVSHEDPEVQFKWYVDGVEVHNAKTKPREEQYNSTFRVVSVLTVLHQDWLNGKEYKCKVSNKALPAPIEKTISKTKGQPREPAVYTLPPSREEMTKNQVKLVCLVTGFYPSDIAVEWESSGQPENNYYTTPPMLDSDGSFSLVSWLNVDKSRWQQGNIFSCSVMHEALHNRFTQKSLSLSPGGGGGTEVQLVESGGGLVQPGGSLRLSCAVSGYSITSDYAWNWIRQAPGKCLEWMGYISYSGSTAYNPSLKSRITISRDTSKNTFYLQMSSLRAEDTAVYYCARGPYNYLAYWGQGTLVTVSSGGGGSGGGGSGGGGSDIQLTQSPSSLSASVGDRVTITCRASESVDNYGISFMNWFQQKPGKAPKLLIYAASNQKSGVPSRFSGSGSGTDFTLTISSLQPEDFATYFCQQSKEVPLTFGCGTKVEIL
heavy 2: QVQLVQSGAEVKKPGASVKVSCKASGYTFTRYYMHWVRQAPGQGLEWMGWIYPGEGSTKYAQKFQGRVTMTRDTSISTAYMELSRLRSDDTAVYYCAREYGNYDYWGQGTLVTVSSASTKGPSVFPLAPSSKSTSGGTAALGCLVKDYFPEPVTVSWNSGALTSGVHTFPAVLQSSGLYSLSSVVTVPSSSLGTQTYICNVNHKPSNTKVDKKVEPKSCDKTHTCPPCPAPEAAGGPSVFLFPPKPKDTLMISRTPEVTCVVVDVSHEDPEVKFNWYVDGVEVHNAKTKPREEQYNSTYRVVSVLTVLHQDWLNGKEYKCKVSNKALPAPIEKTISKAKGQPREPEVATFPPSRDELTKNQVTLVCLVTGFYPSDIAVEWESNGQPENNYKTDPPLLESQGSFALSSRLRVDKSRWQQGNVFSCSVMHEALHNHYTQKSLSLSPGK
light: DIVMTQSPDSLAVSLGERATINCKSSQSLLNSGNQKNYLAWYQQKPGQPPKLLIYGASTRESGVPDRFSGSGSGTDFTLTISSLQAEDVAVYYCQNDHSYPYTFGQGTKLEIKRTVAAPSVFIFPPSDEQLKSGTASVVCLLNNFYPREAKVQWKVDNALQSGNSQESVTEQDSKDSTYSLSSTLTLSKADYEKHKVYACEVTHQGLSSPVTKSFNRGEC
For the molecule B5, in test [1], the “% donor responder” value was 0% and the “Mean, normalized IL-2 release, SEB assay” value worked out at 0.96.

The values are drawn from US20200347143A1 (GLENMARK PHARMACEUTICALS S A, published 2020).
